Test results published in patent US20160003844A1 (MOGAM BIOTHECHNOLOGY INSTITUTE, published 2016).
Changes are numbered by the printed parent chain.

B1: HER3#62 (other)
VH: EVQLVESGGGLVQPGGSLRLSCAASGFTFSSYAMGWVRQAPGKGPEVVSLISGSGGSTWYDDSVKGRFTISRDNSKNTLYLQMNSLRAEDTAVYYCASHPPRVDTWGQGTLVTVSS
notes: Human VH domain antibody (single heavy chain variable domain)
B2: HER3#723 (other)
VH: B1 VH with S30Y, S31N, A33P, D90N, P101V, R102S, V103L, D104L, T105F
notes: Human VH domain antibody (single heavy chain variable domain), FR3 reads ...SLRAEN TAVYYC (N where the other clones have D)
B3: HER3#748 (other)
VH: B1 VH with S30Y, Y32L, A33M, H99R, P100H, R102P, V103G, D104L, T105M
notes: as for B1
B4: HSA50 (other)
VH: B1 VH with P100Q, P101F, R102T, V103T, D104T, T105Q
notes: as for B1
B5: HSA11 (other)
VH: B1 VH with P100K, P101F, V103N, D104L, T105K
notes: as for B1
B6: HSA9 (other)
VH: B1 VH with P100Q, P101W, R102S, V103R, D104Q, T105Q
notes: Human VH domain antibody (single heavy chain variable domain) selected from a CDR-engineered library; its FR2 matches the MG8-4 scaffold

molecular target: T1, Human Epidermal Growth Factor Receptor-3 (human, UniProt P21860 20-643, limits assumed); test: method not stated; 'Affinity (nM)'
T1 construct: also called HER3
T1 sequence (P21860 20-643 limits assumed): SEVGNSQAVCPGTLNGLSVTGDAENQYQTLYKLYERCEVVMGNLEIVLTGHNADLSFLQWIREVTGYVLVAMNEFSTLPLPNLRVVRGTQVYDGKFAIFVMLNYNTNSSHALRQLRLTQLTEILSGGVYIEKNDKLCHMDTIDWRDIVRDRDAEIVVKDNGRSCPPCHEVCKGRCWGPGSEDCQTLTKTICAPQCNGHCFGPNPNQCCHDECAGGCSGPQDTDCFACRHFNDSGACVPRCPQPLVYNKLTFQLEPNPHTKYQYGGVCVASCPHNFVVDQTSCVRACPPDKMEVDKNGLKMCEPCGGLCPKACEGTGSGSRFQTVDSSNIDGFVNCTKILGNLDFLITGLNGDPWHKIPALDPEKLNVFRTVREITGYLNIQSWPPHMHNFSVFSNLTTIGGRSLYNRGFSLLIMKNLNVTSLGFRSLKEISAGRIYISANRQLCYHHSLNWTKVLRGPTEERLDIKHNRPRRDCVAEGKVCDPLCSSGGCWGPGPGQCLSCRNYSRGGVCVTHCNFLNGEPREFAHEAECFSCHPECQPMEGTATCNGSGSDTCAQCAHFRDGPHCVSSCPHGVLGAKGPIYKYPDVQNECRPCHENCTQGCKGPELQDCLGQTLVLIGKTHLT

Row | Binder | Kd [nM]
1 | B1 | 1.8
2 | B2 | 27.4
3 | B3 | 20

molecular target: T2, human serum albumin (human, UniProt P02768 25-609); test: method not stated; 'Affinity (nM)'
T2 construct: also called HAS; HSA
T2 sequence (P02768 25-609 limits assumed): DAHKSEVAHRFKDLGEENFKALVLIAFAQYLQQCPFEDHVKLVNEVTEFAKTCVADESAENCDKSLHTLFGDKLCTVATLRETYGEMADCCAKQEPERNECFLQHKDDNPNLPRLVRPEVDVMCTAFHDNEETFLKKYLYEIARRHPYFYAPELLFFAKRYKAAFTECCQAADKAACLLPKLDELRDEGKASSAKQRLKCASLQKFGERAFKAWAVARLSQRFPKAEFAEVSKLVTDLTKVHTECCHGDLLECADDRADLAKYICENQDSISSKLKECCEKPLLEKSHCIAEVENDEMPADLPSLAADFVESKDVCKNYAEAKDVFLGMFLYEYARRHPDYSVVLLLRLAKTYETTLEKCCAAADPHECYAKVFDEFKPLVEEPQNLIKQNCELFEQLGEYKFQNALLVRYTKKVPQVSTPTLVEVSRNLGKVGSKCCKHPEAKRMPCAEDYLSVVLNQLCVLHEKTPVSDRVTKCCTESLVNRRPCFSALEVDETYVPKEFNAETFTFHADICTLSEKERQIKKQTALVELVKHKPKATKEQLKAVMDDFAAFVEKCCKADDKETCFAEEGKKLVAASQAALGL

Row | Binder | Kd [nM]
4 | B4 | 7.8
5 | B5 | 1.2
6 | B6 | 1.7
